± gives the standard error. For some assays here: This sample holds only a part of the variants without activity.
B1: glmS ribozyme (parent)
chain: AUAAAAGCGCCAGAACUACAGAAAUGUAGUUGACGAGGAGGAGGUUUAUCGAAUUUUCGGCGGAUGCCUCCAAA

What was measured:
Details in all cases: with glucosamine-6-phosphate
glucosamine-6-phosphate [1] = variants of: B1; test: kcat; higher = faster cleavage; RNA array
Summary of the method: (§1)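 The measurements used barcoded ribozyme variants on sequenced MiSeq chips, transcribed in situ by E. coli RNA polymerase and tracked at 37 °C with a hybridised Cy3 probe. Glucosamine-6-phosphate, 40 μM to 10 mM in HEPES/KCl/Mg(OAc)2 buffer, was flowed in while tiles were imaged over ~14 h. Baseline-normalised signals, also normalised to non-cleaving reference variants, gave per-tile medians that were fit to one- or two-exponential decays for kobs. kcat and KM resulted from weighted Michaelis–Menten fits across concentrations.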

glucosamine-6-phosphate [2] = variants of: B1; test: self-cleavage kobs at 40 uM GlcN6P; higher = faster cleavage; RNA array
Summary of the method: as §1

glucosamine-6-phosphate [3] = variants of: B1; test: self-cleavage kobs at 160 uM GlcN6P; higher = faster cleavage; RNA array
Summary of the method: as §1

glucosamine-6-phosphate [4] = variants of: B1; test: self-cleavage kobs at 640 uM GlcN6P; higher = faster cleavage; RNA array
Summary of the method: as §1

glucosamine-6-phosphate [5] = variants of: B1; test: self-cleavage kobs at 2500 uM GlcN6P; higher = faster cleavage; RNA array
Summary of the method: as §1

glucosamine-6-phosphate [6] = variants of: B1; test: self-cleavage kobs at 10000 uM GlcN6P; higher = faster cleavage; RNA array
Summary of the method: as §1

glucosamine-6-phosphate [7] = variants of: B1; test: KM; higher = weaker cofactor use; RNA array
Summary of the method: as §1

| Variant | kcat (glucosamine-6-phosphate [1]) | self-cleavage kobs at 40 uM GlcN6P (glucosamine-6-phosphate [2]) | self-cleavage kobs at 160 uM GlcN6P (glucosamine-6-phosphate [3]) | self-cleavage kobs at 640 uM GlcN6P (glucosamine-6-phosphate [4]) | self-cleavage kobs at 2500 uM GlcN6P (glucosamine-6-phosphate [5]) | self-cleavage kobs at 10000 uM GlcN6P (glucosamine-6-phosphate [6]) | KM (glucosamine-6-phosphate [7]) |
| --- | --- | --- | --- | --- | --- | --- | --- |
| AUAAAAGCGCUAGAACUACAGAAAUGUAGUUGACGAGGAGGAGGUUUAUCGAAGUUUCGGCGGAUGCCUCCAAA | 0.00114 ± 0.00053 s⁻¹ | 5.3e-05 ± 1.1e-05 s⁻¹ | 0.000153 ± 2.1e-05 s⁻¹ | 0.000277 ± 3.9e-05 s⁻¹ | 0.000642 ± 9.5e-05 s⁻¹ | 0.00164 ± 0.00025 s⁻¹ | – |
| AUAAAAGCGCCACAACUACAGAAAUGUAGUUGACGAGGAGUAGGUUUAUCGAAUUUUCGGCGGAUGCCUCCAAA | 3.06e-05 ± 9.2e-06 s⁻¹ | – | – | – | – | – | – |
| AUAAAAGCGCCAGAAGUACAGAAAUGUAGUUGAUGAGGAGGAGGUUUAUCGAAUUUUCGGCGGAUGCCUCCAAA | < 1e-05 s⁻¹ | < 1e-05 s⁻¹ | < 1e-05 s⁻¹ | < 1e-05 s⁻¹ | – | < 1e-05 s⁻¹ | – |
| AUAAAAGCGCCAGAACUACAGAAAUGUAGUUUACGAGGAGGAGGUUUAUCGAAUUUUGGGCGGAUGCCUCCAAA | 0.00149 ± 0.00016 s⁻¹ | – | 3.01e-05 ± 9.4e-06 s⁻¹ | 0.000102 ± 1.7e-05 s⁻¹ | 0.000294 ± 7.3e-05 s⁻¹ | 0.000802 ± 9.7e-05 s⁻¹ | 8790 ± 1300 µM |
| AUAAAAGCGCCAGAACUACAGAAAUGUAGUUGACGCGGAGGAGGUCUAUCGAAUUUUCGGCGGAUGCCUCCAAA | < 1e-05 s⁻¹ | < 1e-05 s⁻¹ | – | < 1e-05 s⁻¹ | – | < 1e-05 s⁻¹ | – |
| AUAAAAGCGCCACAACUACAGAAAUGUAGUUGACGAGGUGGAGGUUUAUCGAAUUUUCGGCGGAUGCCUCCAAA | 6.85e-05 ± 4.7e-06 s⁻¹ | < 1e-05 s⁻¹ | – | – | 2.64e-05 ± 1e-05 s⁻¹ | 4.82e-05 ± 7.1e-06 s⁻¹ | 4180 ± 820 µM |
| AUAAAAGCGCCAGAACUACAGAAAUGUAGUUGACGAGGAGGAGGUUUAUCGAAUUCUCGGCGGAUGCGUCCAAA | < 1e-05 s⁻¹ | – | < 1e-05 s⁻¹ | – | – | < 1e-05 s⁻¹ | – |
| AUAAAAGCGCCAGUGCUACAGAAAUGUAGUUGACGAGGAGGAGGUUUAUCGAAUUUUCGGCGGAUGCCUCCAAA | 0.0123 ± 0.0018 s⁻¹ | 0.000225 ± 4e-05 s⁻¹ | 0.000672 ± 0.00015 s⁻¹ | 0.00234 ± 0.00043 s⁻¹ | 0.0077 ± 0.0012 s⁻¹ | 0.00944 ± 0.0012 s⁻¹ | 2410 ± 520 µM |
| AUAAAGGCGCCAGAACUACAGAAAUGUAGUUGACGAGGAGGAGGUUUAUCGAAUUGUCGGCGGAUGCCUCCAAA | 0.000188 ± 3.3e-05 s⁻¹ | – | – | 7.97e-05 ± 1.2e-05 s⁻¹ | 0.000107 ± 1.5e-05 s⁻¹ | 0.000191 ± 2.3e-05 s⁻¹ | 1150 ± 540 µM |
| AUAAAAGCGCCAUAACUACAGAAAUGUAGUUGACGAGGAUGAGGUUUAUCGAAUUUUCGGCGGAUGCCUCCAAA | 7.77e-05 ± 1.2e-05 s⁻¹ | – | – | 3.55e-05 ± 9.5e-06 s⁻¹ | 8.94e-05 ± 1.4e-05 s⁻¹ | 6.79e-05 ± 8.5e-06 s⁻¹ | – |
| AUAAAAGCGCCAGUACUACAGAAAUGUAGUUGACGAGGAGGAGGUUUAUCGAAUUUUCGGCGGAUGCCUGCAAA | 0.000149 ± 3.1e-05 s⁻¹ | – | 5.56e-05 ± 7.3e-06 s⁻¹ | 8.73e-05 ± 9.3e-06 s⁻¹ | 0.000147 ± 1.8e-05 s⁻¹ | – | – |
| AUAAAAGCGCCAGAACUACAGAAAUGUAGUUGACCAGGAGGAGGUUUAUCGAAUUUUCGGCGGAUGCCUACAAA | < 1e-05 s⁻¹ | < 1e-05 s⁻¹ | – | < 1e-05 s⁻¹ | – | – | – |
| AUAAAAGCGCCAGAACUACAGAAAUGUAGUUGACGGGGAGGAGGUUUAUCGAAUUUUCGGCGGAUGCCUCGAAA | 1.32e-05 ± 3.6e-06 s⁻¹ | – | – | < 1e-05 s⁻¹ | – | – | – |
| AUAAAAGCGCCAGAACUACAGAAAUGUAGUUGACGAGGACGAGGUUUAUCGAUUUUUCGGCGGAUGCCUCCAAA | 0.00427 ± 0.00097 s⁻¹ | 8.31e-05 ± 9.2e-06 s⁻¹ | 0.000241 ± 5.8e-05 s⁻¹ | 0.000607 ± 0.00011 s⁻¹ | 0.00226 ± 0.00037 s⁻¹ | 0.0035 ± 0.00035 s⁻¹ | 2570 ± 870 µM |
| AUAAAAGCGCCAGAACUACAGAAAUGUAGUUGACGAGGAGGAGGUUUAUCGAAUUUUCGGCGGAUUCCUGCAAA | 0.000127 ± 1.1e-05 s⁻¹ | – | 3.86e-05 ± 1.7e-05 s⁻¹ | 5.98e-05 ± 1.4e-05 s⁻¹ | 0.000112 ± 1.7e-05 s⁻¹ | 0.000117 ± 1.9e-05 s⁻¹ | 550 ± 180 µM |
| AUAAAAGCGCCUGAACUACAGAAAUGUAGUUGACGAUGAGGAGGUUUAUCGAAUUUUCGGCGGAUGCCUCCAAA | 3.51e-05 ± 1.1e-05 s⁻¹ | – | – | – | – | – | – |
| AUAAAAGCGCCAGAAUUACAGAAAUGUAGUUGACGAGGAGGAGGUUUAUCGAACUUUCGGCGGAUGCCCCCAAA | 0.0043 ± 0.0021 s⁻¹ | 0.000216 ± 7.7e-05 s⁻¹ | – | 0.000965 ± 0.00017 s⁻¹ | 0.00258 ± 0.00059 s⁻¹ | 0.00361 ± 0.0013 s⁻¹ | – |

Source: the supplement of paper PMC7125110
